T1: human CCX CKR with N-terminal Flag epitope, stably expressed on HEK293 cells (UniProt Q9NPB9 1-350)
T1 chain: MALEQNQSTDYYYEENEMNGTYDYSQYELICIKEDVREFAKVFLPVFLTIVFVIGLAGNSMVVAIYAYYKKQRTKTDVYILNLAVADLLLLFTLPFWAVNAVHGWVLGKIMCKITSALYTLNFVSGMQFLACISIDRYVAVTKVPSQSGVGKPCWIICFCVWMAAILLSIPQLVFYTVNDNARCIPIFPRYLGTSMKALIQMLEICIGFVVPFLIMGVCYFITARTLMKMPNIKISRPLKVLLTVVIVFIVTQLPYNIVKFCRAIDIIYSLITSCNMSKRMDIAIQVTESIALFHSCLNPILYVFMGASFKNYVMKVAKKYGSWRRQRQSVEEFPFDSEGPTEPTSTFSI

B1: human SLC (secondary lymphoid-tissue chemokine) (ligand)
chain: SDGGAQDCCLKYSQRKIPAKVVRSYRKQEPSLGCSIPAILFLPRKRSQAELCADPKELWVQQLMQHLDKTPSPQKPAQGCRKDRGASKTGKKGKGSKGCKRTERSQTPKGP
B2: murine SLC (ligand)
chain: SDGGGQDCCLKYSQKKIPYSIVRGYRKQEPSLGCPIPAILFSPRKHSKPELCANPEEGWVQNLMRRLDQPPAPGKQSPGCRKNRGTSKSGKKGKGSKGCKRTEQTQPSRG
B3: MCP-3 (ligand)
chain: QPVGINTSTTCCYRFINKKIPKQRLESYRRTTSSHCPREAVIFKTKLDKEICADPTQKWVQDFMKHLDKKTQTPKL
B4: mMIP-1gamma (murine macrophage inflammatory protein 1 gamma) (ligand)
chain: QITHATETKEVQSSLKAQQGLEIEMFHMGFQDSSDCCLSYNSRIQCSRFIGYFPTSGGCTRPGIIFISKRGFQVCANPSDRRVQRCIERLEQNSQPRTYKQ
B5: human TECK (thymus expressed chemokine) (ligand)
chain: QGVFEDCCLAYHYPIGWAVLRRAWTYRIQEVSGSCNLPAAIFYLPKRHRKVCGNPKSREVQRAMKLLDARNKVFAKLHHNTQTFQAGPHAVKKLSSGNSKLSSSKFSNPISSSKRNVSLLISANSGL
modifications: 125I label where used as radioligand
B6: murine TECK (ligand)
chain: QGAFEDCCLGYQHRIKWNVLRHARNYHQQEVSGSCNLRAVRFYFRQKVVCGNPEDMNVKRAMRILTARKRLVHWKSASDSQTERKKSNHMKSKVENPNSTSVRSATLGHPRMVMMPRKTNN
B7: murine ELC (ligand)
chain: GANDAEDCCLSVTQRPIPGNIVKAFRYLLNEDGCRVPAVVFTTLRGYQLCAPPDQPWVDRIIRRLKKSSAKNKGNSTRRSPVS
B8: human ELC (EBI1 ligand chemokine) (ligand)
chain: GTNDAEDCCLSVTQKPIPGYIVRNFHYLLIKDGCRVPAVVFTTLRGRQLCAPPDQPWVERIIQRLQRTSAKMKRRSS
modifications: 125I label where used as radioligand
B9: vMIPII (viral macrophage inflammatory protein II) from human Kaposi's sarcoma herpesvirus HHV8 (ligand)
chain: LGASWHRPDKCCLGYQKRPLPQVLLSSWYPTSQLCSKPGVIFLTKRGRQVCADKSKDWVKKLMQQLPVTAR

Target: T1, human CCX CKR with N-terminal Flag …
Experiment: 125I-ELC competition binding
B1 was tested, and the IC50 was 12 nM.
In the case of B2, the IC50 is reported as 4 nM.
With B3 the IC50 was > 2000 nM.
B4 gave an IC50 of 70 nM.
In the case of B5, the IC50 is reported as 7 nM.
With B6 the IC50 was 2 nM.
B7 showed an IC50 of 1 nM.
B8 was tested, and the IC50 was 6 nM.
For B9, the IC50 was 90 nM.
